This test has as its target human neuronal nicotinic acetylcholine receptor α7 subunit (human), P36544.

What is called IC50 is the concentration at which inhibition is half-maximal. Higher therefore signals a need for much substance.

Sequence of human neuronal nicotinic acetylcholine receptor α7 subunit (human), P36544 (P36544 23-502 limits assumed): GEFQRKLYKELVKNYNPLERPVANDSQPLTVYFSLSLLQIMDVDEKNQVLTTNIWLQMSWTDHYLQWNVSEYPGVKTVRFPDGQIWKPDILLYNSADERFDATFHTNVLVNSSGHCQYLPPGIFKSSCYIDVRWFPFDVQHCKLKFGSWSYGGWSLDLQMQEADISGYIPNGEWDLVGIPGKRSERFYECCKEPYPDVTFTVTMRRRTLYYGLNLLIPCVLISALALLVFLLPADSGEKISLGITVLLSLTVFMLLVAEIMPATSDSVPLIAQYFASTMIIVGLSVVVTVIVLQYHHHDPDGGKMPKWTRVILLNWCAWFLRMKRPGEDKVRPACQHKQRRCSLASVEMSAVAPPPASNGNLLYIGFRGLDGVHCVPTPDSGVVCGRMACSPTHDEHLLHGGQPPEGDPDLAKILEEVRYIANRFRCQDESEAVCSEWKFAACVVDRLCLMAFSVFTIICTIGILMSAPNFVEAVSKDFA

B1: α-bungarotoxin, P60615 22-95 (peptide)
chain: IVCHTTATSPISAVTCPPGENLCYRKMWCDAFCSSRGKVVELGCAATCPSKKPYEEVTCCSTDKCNPHPKQRPG
modifications: not checked
B1 yielded an IC50 of 3 nM and a percent of [3H]-MLA binding displaced of 65%.

For the origin of these results see US6936457.
